Assay results taken from paper PMC1669733.

Legend:
[1] = biological target: His-Rep 120–362 (Mungbean yellow mosaic India virus (MYMIV)); experiment: sucrose gradient centrifugation
[2] = biological target: His-Rep 1–362 (full-length Rep protein of Mungbean yellow mosaic India virus) (Mungbean yellow mosaic India virus (MYMIV)); experiment: sucrose gradient centrifugation

Substance | stoichiometry N [1] | stoichiometry N [2]
His-Rep 120–362 (domain or fragment) | 24 | 
His-Rep 1–362 (full-length Rep protein of Mungbean yellow mosaic India virus) (enzyme) |  | 24
